Among the data in ChEMBL document CHEMBL1133169, “A light-inactivated antibiotic” (2000) are Km values, retold here.

Substrate in the data set: CC(=O)OCC1=C(C(=O)O)N2C(=O)[C@@H](NC(=O)[C@@H](Cc3ccccc3)NNC(=O)OCc3ccccc3[N+](=O)[O-])C2SC1
The experiment in a line: The turnover kinetic parameter (Km) evaluated for Class A TEM-1 beta-lactamase.

B1: Beta-lactamase TEM (Escherichia coli), P62593 (protein)
chain: MSIQHFRVALIPFFAAFCLPVFAHPETLVKVKDAEDQLGARVGYIELDLNSGKILESFRPEERFPMMSTFKVLLCGAVLSRVDAGQEQLGRRIHYSQNDLVEYSPVTEKHLTDGMTVRELCSAAITMSDNTAANLLLTTIGGPKELTAFLHNMGDHVTRLDRWEPELNEAIPNDERDTTMPAAMATTLRKLLTGELLTLASRQQLIDWMEADKVAGPLLRSALPAGWFIADKSGAGERGSRGIIAALGPDGKPSRIVVIYTTGSQATMDERNRQIAEIGASLIKHW
A word on the Km: it is the substrate concentration at which the rate is half of its maximum. With B1, the Michaelis constant (Km) is 80 µM.
